Results: the nanobody polyreactivity screen of Harvey et al. (2022)

Experiment: yeast display, Sf9 membrane polyspecificity reagent, FACS + sequencing; frameworks hold sequencing errors
In short: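 Galactose induction of a Saccharomyces cerevisiae BJ5465 synthetic nanobody display library ran 36–48 hours. The cells were then stained for 1 hour at 4 °C with 10% biotinylated, detergent-solubilized Sf9 membrane reagent, pulled down on streptavidin microbeads and FACS-sorted into low and high (top ~1%) gates on expression and reagent-binding fluorescence. Labels for polyreactivity follow the gate of origin.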

| Sequence | polyreactivity (PSR sort gate) |
| --- | --- |
| QDQLVESGGGLVQAGGSLRLSCAASGIILDHYSMGWYRQAPGKERELVAAISSGTRTNYADSVKGRFTISRDNAKHTVSLQMNSLKPEDTAVYYCAATIYRRYRSKYSITSYWGQGTQVTVSS | high polyreactivity |
| QVQLVESGGGLVQAGGSLRLSCAASGRTSAWYAMGWYRQAPGKERDLVATISYTGGRTYYADSVKGRFTISRDNAKNTVYLQMNSLKPEDTAVYYCAKRYTSWFSSKFDYWGQGTQVTVSS | high polyreactivity |
| QVQLVESGGGLVQAGGTLRLSCAASGSIFGNNLMGWYRQAPGKERELVAAISWSGGKNYADSVKGRFTISRDNAKNTVYLEMHCLIPDDSAVYYCAALSVWSYYTYYYWGQGTQVTVSS | high polyreactivity |
| QVQLLESGGALVQAAGSLRLSCAASGYTIGRYAIGWYRHAPGKDRELVAAITWSGGSTYYADSVKGRFTISRDNAKNTVYLQMNSLKPEDTAVYYCAKRYRYYSYGPYGMYYWGQGTQVSVSS | high polyreactivity |
| QVQLVESGVGLVQAGGSLRLSCAASGGIFVPYAMGWYRQAPGKERELVAGITSGGSTNYADSVKGRFTISRDNAKNTVYLQMNSLKPEDTAVYYCAARRRPGGRYKSRVWYDYWGQGTQVTVSS | high polyreactivity |
| QVQLVESGGGLVQAGGSHRLSCAASGRIFKINAMGCYRQAPVKERELVAGISGSGSDTYYADSVKGRFTISRDNSKNTVYLQMNSLKPEDTAVYYCAATVVQYYDRDYWGQGTQVTVSS | low polyreactivity |
| QVQLVESGGGLVQAGGSLRLSCAASGSTFEYYAMVWYRQAAGKERELVDRINWSGGSTYYADSVKGRFTISRDNAKNTVYLQMNSLKPEDTAVYYCNRKLTRFTCFPLAYWGQGTQVTVSS | low polyreactivity |
| QVQLVESGGGLVQAGGSLRLSCAASGSIFIIYAMGRYRQAPGKERELVAAIRGRGGSTYYADSVKGRFTISRDKAKNTVYLEMNSLNPEDSAVYYCAASVDRGYNYWGEGTQVTVSS | high polyreactivity |
| QVQLVESGGGLVQAGGSLRLSCAASGSTFGVNAMGWYRQAPGKERELVAAISVSGGRTYYADSVKGRFTISRDNAKNTVYLLMNSLKPEDTAVYYCAATTYIWPYDYWGQGTQVTVSS | low polyreactivity |
| QVQLVESGGGLVQAGGSLRLSWAASGGIFKVYGMRWYRQAPGKERELVAAISWTTGGTYYADSVKGRFTISRDNAKNTVYLQMNSLKPEDTAVYYCAAEYADSWSAFDWNYYYWGQGTQVTVSS | high polyreactivity |
| QVQLVESGGGLDQAGGSLRLSCAASGFTFDENAMGSYRQAPGINYSGASTYYADSVKGRFTISRDNAKNTVYLQMNSLKPEDTAVYYCAAEVVAQMNYWGQGTQVTVSW | low polyreactivity |
| QVQLVESGGGLVQAGGSLRLSCAASGSTFWKYVMGWYRQAPGKVRELVAAITSRGGSTYADSVKGRFTISRDNAKNTVYLQMNSLKPEDTAVYYCAATKFWYYGYDYWGQGTQVTVSS | low polyreactivity |
| QVQLVESGGGLVQAGGSRRLSCAASGRTFVGTAMGWSRQAPGKERELVAAMSGDGSTNYADSVKGRFTISRDNAKNTVYLQMNSLKPEDTAVYYCAADGVTRYYQRTYTRYGYWGQGTQVTVSS | low polyreactivity |
| QVQLVESGGGLVQAGGSLRLSCAASGSIFESYAMGWYRQAPGKEREFVAAISDSGADTYYADSVKGRFTISRDNAKNTVYLQMNSLKPEDTAVYYCNADKEFAVLGQGMDYWGQGTQVTVSS | low polyreactivity |
| QVQLVESGGGLEQAGGSLRISCAASGITFRWYAMGWYRQAPGKERELVAAISERGGSTYYADSVKGRFTISRDNAKNTVYLQMNSLKPEDTAVYYCAADSQHWQRWHGYWGQGTEVTVSS | high polyreactivity |
| QVQLVESGGGLVQAGGSLRLSCAASGRIFSYNAMGWYRPAPGKEREIVAGITKSGDDTFYADSVKGRFTISRDNAKNTVYLQMNSLKPQDTAVYYCAAASNPRYYTNRMVYWGQGTQVTVSS | low polyreactivity |

| Sequence | polyreactivity (PSR sort gate) |
| --- | --- |
| QVQLVESGGCLVQAGGSLRLSCAASGFTFGRYVMGWYRQAPGKERELVAGINQSGGRTNYADSVKGRFTISRDNAKNTVYLQMNSLKPEDTAVYYCAALRSWRKTGGAQRYWYDYWGQGTQVTVSS | high polyreactivity |
| QVQLVESGAGLVQAGGSLRLSCAASGIIFDWYTMGWYRQAPGKERELVAAISWRGGRTYYADSVKGRFTISRDNAKNTVYLQMNSLKPEDTAVYYCAAEAPVQPFYVFNTGIYELDYWGQGTQVTVSS | low polyreactivity |
| QVQLVESGGGLVQAGGSLRLSCAASGSTFYRNAMGWYRQAPGKERELVAGITSGVTTYYADSVKGRFTISRDNAKNTVYLQMNSLKPEDSAVYYCAVYWRGRGAFTYGSWGQGTQVTVSS | high polyreactivity |
| QVQLVESGGGLVQAGGSLRLSCAASGSIFYENMGWYRQSPRKERELVASISWSGTSTYADSVKGRFTISRDNAKNTVYLQMNSLKPEDSAVYYCAAGKNGYTYSRSYSYGYWGQGTQVTVSS | high polyreactivity |
| QVQLVESGGGLVQAGGSLRLSCAASGLTLGDNAMGWSRQAPGNERELVASITNGGSTNYADSVKGRFTISRDNAKNTVYLQMNSLNPEDTAVYYCAVEWTWRSTAYSGGAFDYWGQGTQVTVSS | low polyreactivity |
| QVQLVESGGGLVQAGGSLRLSCAASGSTFEYYAMGSYRQAPGKERELVATISIDGRTNYADSVKGRFTISRDNAKNTVYLQMNSLKPEDTAVYYCAARPYWRQRYDYWGQGTQVTVSS | low polyreactivity |
| QVQLVESGGGLVQAGGSLRLSGAASGRTFYDYAMGWYRQAPGKERELVAAISWIDGSTYYADSVKGRFTISRDNAKNTVYLLMNSLKPEDTAVYYCAARRLVYYRKVKELDYWGQGTQVTVSS | high polyreactivity |
| QVQLVESGGGLVQAGGSLRLICAASGFTFRNNAMGWYRQAPGKERELVARITFRGGSTYYADSVKGSFTISRDNAKNTVYLQMNSLNPEHTAVYYCAVDWLSVTSTIKFVMDYWGQGTQVTVSS | low polyreactivity |
| QVQLVESGGGLVQAGGSLRLSCAASGRTFIANAMGWYRQAPGKERELVAVITLNGGSTYYADSVKGRFTISRDNAKNTVYLQMNSLKPEDSAVYYCDAGRYYNLRATHGYWRQGTQVTVSS | low polyreactivity |
| QVQLVESGGGLVQAGGSLRLSCAASGLIFRVNAMGWYRQAPGKERELVASISVSGGSTYYADSVKGRFTISRDNAKNTVYLQMNSLKPEDTAVYYCAASQYHKGYLFSYPYEYDYWGQGTQVTVSS | low polyreactivity |
| QVQLVESGGGLVQAGGILRLSCAASGGTFTYNAMGWYRQAPGKERELVAAITNGGGSTYYADSVKGRFTISRDNAKNTVYLQMNSLKPEDTAVYYCAARWWYYYTEYDYWGQGTQVTVSS | low polyreactivity |
| QVQLVESCGGLVQAGGSLRLSCAASGFTFGSYDMGWYRQAPGKERELVAAITWSGGSTYYADSVKGRFTISRDNAKNTVYLQMNSLKPEDTAVYYCNAYKFHMNYWGQGTQVTVSS | high polyreactivity |
| QVQLVESGGGLVQAGGSLRLSCAPSGITFRQFTMGWYRQAPGKERELVAAITSSGRTYYADSVKGRFTISLDNAKNTVYLQMNSLKPEDTAVYYCAAGVGGAAHPVSYFTYDYWGQGTQVTVSS | high polyreactivity |
| KVQLVESGGGLVQAGGSLRLSCAASGSIFYYYAMGWYRQAPGKERELVAAISERGAYVLRRPVKGRFTISRDNAKNTVYLQMNSLKPEDTAVYYCAVGFNFQGWRYDYWGQGTQVNVSS | high polyreactivity |
| QVQLVESGGGLVQAGGSLRLSCAASGLTFRTYAMGWYRQAPGKERELVAAISRSGSTTYYADSVKGRFTISRDNAKNTVYLQMNSLKPEDTAVYYCAAVGIRWLEYWGQGTQVTVSS | high polyreactivity |
